Consider one molecule from patent publication US20260265697A1, “COMPOSITIONS AND METHODS OF PREPARING AIRWAY CELLS” (Yale University, priority 2014, published 2026).

For test [1], the system named is iPS cell-derived DE cells. The experiment in a line: Anterior foregut endoderm (AFE) differentiation of DE cells, FOXA2+SOX2+ cells by flow cytometry. Conditions: day 7, flow cytometry, FIG. 3A. The test is classed as cell-based, human. On the procedure: (§1) Subsequently, the DE cells were trypsinized and replated on human ECM protein coated plates and were differentiated to anterior foregut endoderm (AFE) by exposing them sequentially between days d5 to d7 to combinations of the small molecule inhibitors in IMDM with 10% FBS, 2 mM L-glutamine, 1 mM nonessential amino acids, 1% antibiotic-antimycotic.
For flow cytometry, cells were fixed with the fixation solution from the Fixation/Permeabilization kit (BD Biosciences), and stained with primary and detection antibodies as described by the manufacturer. Briefly cells were dissociated into single-cell suspensions by incubation with 0.25% trypsin for 2 min. The dissociated cells were resuspended (0.5×10^6 cells) in 250 μl of fixation/permeabilization solution, kept on ice for 20 min, and washed twice with Perm/Wash buffer. […] The cells were resuspended in 350 μl of Perm/Wash buffer after incubation with corresponding conjugated secondary for 30 min on ice, washed twice, and analyzed by flow cytometry. […]
BMP4 signaling is required for lung specification and an increase in bFGF and WNT concentration increases NKX2.1^+immature lung progenitors. […] The numbers of cells double positive for FOXA2^+SOX2^+anterior endoderm cells were quantified out of the total FOXA2^+endoderm cells by flow cytometry.
In general terms: Flow cytometry measures light scatter and fluorescence of single cells or particles in a stream.

A further test relates to human iPS cells. The experiment in a line: Differentiation of human iPS cells to definitive endoderm (DE), flow cytometry at day 5. The test is classed as cell-based. The method, then:
iPS cells were first differentiated towards definitive endoderm (DE). DE cells were initiated under conditions described previously. Briefly, iPS cells were cultured in RPMI 1640 medium supplemented with 100 ng/ml activin A, 2 mM L-glutamine and 1% antibiotic-antimycotic for 48 hours. Then, 1×B27 supplement and 0.5 mM sodium butyrate were added into the same medium and iPS cells were cultured in this medium for 3 days with daily medium changes.
For flow cytometry, cells were fixed with the fixation solution from the Fixation/Permeabilization kit (BD Biosciences), and stained with primary and detection antibodies as described by the manufacturer. Briefly cells were dissociated into single-cell suspensions by incubation with 0.25% trypsin for 2 min. The dissociated cells were resuspended (0.5×10^6 cells) in 250 μl of fixation/permeabilization solution, kept on ice for 20 min, and washed twice with Perm/Wash buffer. After blocking with blocking solution for 30 min on ice, the cells were incubated with corresponding primary antibody in the blocking solution for 30 min on ice. The cells were resuspended in 350 μl of Perm/Wash buffer after incubation with corresponding conjugated secondary for 30 min on ice, washed twice, and analyzed by flow cytometry.
Human iPS cells were differentiated to DE cells using serum free conditions (FIG. 1). By exposing iPS cells to saturating concentrations of activin A, greater than 85% endodermal cells were generated. […] 89% of cells were positive for c-kit (FIG. 2A), 91% positive for SOX17 (FIG. 2C), 93% positive for FOXA2 (FIG. 2B), and 88% of the cells expressed the endoderm surface marker CXCR4 (FIG. 2D) in clone C1.

Test [2] concerns iPS cell-derived DE cells. The test can be described thus: Lung endoderm specification of DE cells, NKX2.1+ and NKX2.1+FOXA2+ cells. Conditions: FIG. 3B. The test is classed as cell-based, human. The method, then:
as §1
Then AFE cells were maintained in lung endoderm differentiation medium consisting of IMDM with 20% FBS, 2 mM L-glutamine, 1 mM nonessential amino acids, 1% antibiotic-antimycotic, retinoic acid (0.5 μM), bFGF (10 ng/ml), BMP4 (10 ng/ml), Wnt3a (100 ng/ml), and KGF (10 ng/ml each) for 5 days. […]
For flow cytometry, cells were fixed with the fixation solution from the Fixation/Permeabilization kit (BD Biosciences), and stained with primary and detection antibodies as described by the manufacturer. […] The cells were resuspended in 350 μl of Perm/Wash buffer after incubation with corresponding conjugated secondary for 30 min on ice, washed twice, and analyzed by flow cytometry.
NKX2.1^+is the earliest marker of cells that distinguish future lung from other derivatives of the foregut endoderm. […] The percentages of NKX2.1^+ cells were quantified as percentages of the total cells present. […]

Where [3] appears, read: day 5, flow cytometry, clone C1.

B1: activin A (protein, UniProt P08476 311-426, looked up)
Inhibin beta A chain: GLECDGKVNICCKKQFFVSFKDIGWNDWIIAPSGYHANYCEGECPSHIAGTSGSSLSFHSTVINHYRMRGHSPFANLKSCCVPTKLRPMSMLYYDDGQNIIKKDIQNMIVEECGCS
modifications: Inhibin beta A chain
notes: agent that induces differentiation of iPS cells to definitive endoderm cells
B1: the “number of FOXA2+SOX2+ anterior endoderm cells out of total FOXA2+ endoderm cells” value in test [1] was “rare”. Further, in the test with human iPS cells (setting [3]), the “cells expressing endoderm surface marker CXCR4” value is 88%, the “cells positive for FOXA2” value is reported as 93%, the “cells positive for SOX17” value amounted to 91% and the “cells positive for c-kit” value was determined as 89%. Further, the endodermal cells generated entry with human iPS cells (saturating concentrations of activin A, serum free conditions) is listed as “greater than 85%”. Also, in test [2], the “number of NKX2.1+ cells (percentage of total cells)” value is “few”.
